The record followed here is publication PMC8931120, “LC3B is an RNA-binding protein to trigger rapid mRNA degradation during autophagy”.

For one data set, the target named is LC3B-R/Q (human, UniProt Q9GZQ8 1-120, R68Q;R69Q;R70Q). Put plainly: EMSA; 1 mM Mg2+, 2 uM probe; EMSA: 40 mM Tris pH 8.0, 30 mM KCl, 1 mM MgCl2, 0.01% NP-40, 1 mM DTT, 30 C 1 h; FP: same buffer without NP-40, 100 nM RNA final (200 nM stock diluted 1:2), pro. A general note: A gel shift assay detects complexes by their altered migration in electrophoresis.
For data set [1], the target named is LC3B-WT (mature, cleaved by ATG4B) (human, UniProt Q9GZQ8 1-120). Described as above.

B1: Cy5-AAUAAAx3 (ssRNA)
RNA: AAUAAAAAUAAAAAUAAA
B1: the binding result with LC3B-R/Q was “no binding”; in data set [1], “binds”.
